According to patent US20240309062A1:

Biological target: T1, mouse IFNAR2 (mouse) (UniProt O35664)
T1 sequence: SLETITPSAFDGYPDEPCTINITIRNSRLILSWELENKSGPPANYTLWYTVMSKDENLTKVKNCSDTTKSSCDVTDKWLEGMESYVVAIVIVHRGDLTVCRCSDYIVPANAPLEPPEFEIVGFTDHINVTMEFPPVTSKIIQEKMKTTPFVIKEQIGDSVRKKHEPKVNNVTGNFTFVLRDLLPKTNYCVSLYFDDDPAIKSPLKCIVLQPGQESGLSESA
Test: AlphaSeq

apparent Kd (pooled screen)	Substance
461 nM	IFNA2b_L49P_A168K (from UniProt P01563 24-188) (ligand)
321 nM	IFNA2b_L49P_A168Q (from UniProt P01563 24-188) (ligand)
75 nM	IFNA2b_L49P_E164D (from UniProt P01563 24-188) (ligand)
697 nM	IFNA2b_L49P_K135I (from UniProt P01563 24-188) (ligand)
65 nM	IFNA2b_L49P_K156T (from UniProt P01563 24-188) (ligand)
85 nM	IFNA2b_L49P_K187L (from UniProt P01563 24-188) (ligand)
415 nM	IFNA2b_L49P_K187R (from UniProt P01563 24-188) (ligand)
90 nM	IFNA2b_L49P_K187Y (from UniProt P01563 24-188) (ligand)
69 nM	IFNA2b_L49P_L176P (from UniProt P01563 24-188) (ligand)
84 nM	IFNA2b_L49P_N179G (from UniProt P01563 24-188) (ligand)
2200 nM	IFNA2b_L49P_R167A (from UniProt P01563 24-188) (ligand)
480 nM	IFNA2b_L49P_R167H (from UniProt P01563 24-188) (ligand)
77 nM	IFNA2b_L49P_R167K (from UniProt P01563 24-188) (ligand)
2380 nM	IFNA2b_L49P_R167M (from UniProt P01563 24-188) (ligand)
65800 nM	IFNA2b_L49P_R167S (from UniProt P01563 24-188) (ligand)
6440 nM	IFNA2b_L49P_R167W (from UniProt P01563 24-188) (ligand)
6870 nM	IFNA2b_L49P_R172A (from UniProt P01563 24-188) (ligand)
47300 nM	IFNA2b_L49P_R172E (from UniProt P01563 24-188) (ligand)
2260 nM	IFNA2b_L49P_R172G (from UniProt P01563 24-188) (ligand)

apparent Kd (pooled screen)	Substance
310 nM	IFNA2b_L49P_R172I (from UniProt P01563 24-188) (ligand)
227 nM	IFNA2b_L49P_R172M (from UniProt P01563 24-188) (ligand)
18100 nM	IFNA2b_L49P_R172N (from UniProt P01563 24-188) (ligand)
8550 nM	IFNA2b_L49P_R172Q (from UniProt P01563 24-188) (ligand)
6190 nM	IFNA2b_L49P_R172S (from UniProt P01563 24-188) (ligand)
566 nM	IFNA2b_L49P_R172V (from UniProt P01563 24-188) (ligand)
9950 nM	IFNA2b_L49P_R172W (from UniProt P01563 24-188) (ligand)
65 nM	IFNA2b_L49P_S159H (from UniProt P01563 24-188) (ligand)
75 nM	IFNA2b_L49P_S183Y (from UniProt P01563 24-188) (ligand)
26100 nM	IFNA2b_L49P_V165D (from UniProt P01563 24-188) (ligand)
16400 nM	IFNA2b_L49P_V165E (from UniProt P01563 24-188) (ligand)
22900 nM	IFNA2b_L49P_V165F (from UniProt P01563 24-188) (ligand)
34400 nM	IFNA2b_L49P_V165G (from UniProt P01563 24-188) (ligand)
18600 nM	IFNA2b_L49P_V165Q (from UniProt P01563 24-188) (ligand)
8960 nM	IFNA2b_L49P_V165R (from UniProt P01563 24-188) (ligand)
5950 nM	IFNA2b_L49P_V165T (from UniProt P01563 24-188) (ligand)
802 nM	IFNA2b_M44N_A168H (from UniProt P01563 24-188) (ligand)
23300 nM	IFNA2b_M44N_A168K (from UniProt P01563 24-188) (ligand)
1500 nM	IFNA2b_M44N_A168N (from UniProt P01563 24-188) (ligand)

apparent Kd (pooled screen)	Substance
20000 nM	IFNA2b_M44N_A168Q (from UniProt P01563 24-188) (ligand)
545 nM	IFNA2b_M44N_A168S (from UniProt P01563 24-188) (ligand)
7660 nM	IFNA2b_M44N_E155R (from UniProt P01563 24-188) (ligand)
5820 nM	IFNA2b_M44N_G125Y (from UniProt P01563 24-188) (ligand)
416 nM	IFNA2b_M44N_K135G (from UniProt P01563 24-188) (ligand)
24400 nM	IFNA2b_M44N_K156E (from UniProt P01563 24-188) (ligand)
415 nM	IFNA2b_M44N_K187E (from UniProt P01563 24-188) (ligand)
541 nM	IFNA2b_M44N_L176R (from UniProt P01563 24-188) (ligand)
811 nM	IFNA2b_M44N_L184E (from UniProt P01563 24-188) (ligand)
5780 nM	IFNA2b_M44N_R167A (from UniProt P01563 24-188) (ligand)
4900 nM	IFNA2b_M44N_R167I (from UniProt P01563 24-188) (ligand)
2260 nM	IFNA2b_M44N_R167L (from UniProt P01563 24-188) (ligand)
7010 nM	IFNA2b_M44N_R167T (from UniProt P01563 24-188) (ligand)
8770 nM	IFNA2b_M44N_R172W (from UniProt P01563 24-188) (ligand)
942 nM	IFNA2b_M44N_S138W (from UniProt P01563 24-188) (ligand)
34500 nM	IFNA2b_M44N_S159D (from UniProt P01563 24-188) (ligand)
484 nM	IFNA2b_M44N_S175E (from UniProt P01563 24-188) (ligand)
12300 nM	IFNA2b_M44N_S177D (from UniProt P01563 24-188) (ligand)
528 nM	IFNA2b_M44N_T150G (from UniProt P01563 24-188) (ligand)

Biological target: T1, mouse IFNAR2 (mouse)
Test: AlphaSeq, replicates

apparent Kd (pooled screen)	Substance
20 nM	IFNA2_L49P (from UniProt P01563 24-188) (ligand)

Biological target: T1, mouse IFNAR2 (mouse)
Test: AlphaSeq (yeast mating, Aga2 display)

apparent Kd (pooled screen)	Substance
586 nM	IFNA2b_L49P_A168D (from UniProt P01563 24-188) (ligand)
73 nM	IFNA2b_L49P_K156Q (from UniProt P01563 24-188) (ligand)
480 nM	IFNA2b_L49P_L140N (from UniProt P01563 24-188) (ligand)
708 nM	IFNA2b_L49P_R167I (from UniProt P01563 24-188) (ligand)
1950 nM	IFNA2b_L49P_R167L (from UniProt P01563 24-188) (ligand)
3000 nM	IFNA2b_L49P_R167T (from UniProt P01563 24-188) (ligand)
1740 nM	IFNA2b_L49P_R167V (from UniProt P01563 24-188) (ligand)
591 nM	IFNA2b_M44N_A120T (from UniProt P01563 24-188) (ligand)
825 nM	IFNA2b_M44N_E130M (from UniProt P01563 24-188) (ligand)
520 nM	IFNA2b_M44N_E188R (from UniProt P01563 24-187) (ligand)
472 nM	IFNA2b_M44N_V128G (from UniProt P01563 24-188) (ligand)
